Data from US20220356229A1 (published 2022).

Legend:
[1] = molecular target: SARS-CoV-2 full length Spike protein, wild type, expressed on CHO cells (SARS-CoV-2, UniProt P0DTC2 14-1273)
[2] = molecular target: SARS-CoV full length Spike protein, wild type, expressed on CHO cells (SARS-CoV, UniProt P59594 14-1255)
[3] = molecular target: SARS-CoV-2 Spike protein (SARS-CoV-2, UniProt P0DTC2 14-1208); assay: HT-SPR (Carterra LSA), mAb coupled to chip, Spike in solution, 1:1 Langmuir fit
[4] = molecular target: SARS-CoV Spike protein (SARS-CoV, UniProt P59594 14-1190)
[5] = molecular target: SARS-CoV Spike protein (SARS-CoV, UniProt P59594 14-1190); remark: listed apart in the source

B1: anti-SARS-CoV-2 antibody 1585 (antibody, V domains shown)
VH: QVQLVESGGGVVQPGRSLRLSCAASGFTFSRFTLHWVRQAPGKGLEWVAVISYDGSNKYYADSVKGRFTISRDNSKSTLYLQMNSLRAEDTGVYYCARDPSTVTGYFDYWGQGTLVTVSS
VL: SYVLTQPPSVSVAPGKTAKISCGGDSIGSKSVHWYQQKPGQAPVLVIYYDNDRPSGIPERFSGSNSGNTATLTISRVEAGDEADYYCQVWDIGVVFGGGTKLTVLG
[1]
  median fluorescence intensity, fold over isotype control: 9.55 fold over isotype
[2]
  median fluorescence intensity, fold over isotype control: 19.9 fold over isotype

B2: mAb 1585 (antibody, V domains shown)
VH: QVQLVESGGGVVQPGRSLRLSCAASGFTFSRFTLHWVRQAPGKGLEWVAVISYDGSNKYYADSVKGRFTISRDNSKSTLYLQMNSLRAEDTGVYYCARDPSTVTGYFDYWGQGTLVTVSS
VL: SYVLTQPPSVSVAPGKTAKISCGGDSIGSKSVHWYQQKPGQAPVLVIYYDNDRPSGIPERFSGSNSGNTATLTISRVEAGDEADYYCQVWDIGVVFGGGTKLTVLG
notes: human IgG1
[3]
  Kd: ≤ 0.0171 nM
  koff: ≤ 1e-05 s⁻¹
  kon: 586000 M⁻¹ s⁻¹

B3: mAb 1495 (antibody, V domains shown)
VH: QVQLVESGGGVVQPGRSLRLSCTASGFTFSSYAMHWVRQAPGKGLEWVAVISYDGNNKYYGDSVKGRFTISRDNSKNTLYLQMNSLRAEDTAVYYCAKGADTPHYSGYHFLSVGYYFYGMDVWGQGTTVTVSS
VL: DIQMTQSPSSLSASVGDRVTITCRASQSISYYLNWYQQKPGKAPQLLIYAASSLQSGVPSRFSGSRSGTDFTLTISSLQPEDFATYYCQQSYSTPFTFGPGTKVDIKR
notes: human IgG1
[3]
  Kd: 0.0972 nM
  koff: 1.01e-05 s⁻¹
  kon: 103000 M⁻¹ s⁻¹

B4: mAb 1444 (antibody, V domains shown)
VH: QVQLVQSGAEVKKPGASVKVSCKASGYTFTAYYMHWVRQAPGQGLEWMGWINPNSDDTNYAQKFQGRVTMTRDTSISTAYMELSRLRSDDTAVYYCAREEGVFTIGDRYFDLWGRGTLVSVSS
VL: QTVVTQEPSFSVSPGGTVTLTCGLSSGSVSTSYYPSWYQQTPGQAPRTLIYNTNTRSSGVPDRFSGSILGNKAALTITGAQADDESDYYCVLYMGSGIWVFGGGTKLTVLG
notes: human IgG1
[3]
  Kd: ≤ 0.0221 nM
  koff: ≤ 1e-05 s⁻¹
  kon: 453000 M⁻¹ s⁻¹

B5: anti-SARS-CoV-2 antibody 970 (antibody, V domains shown)
VH: EVQLVESGGGLVQPGGSLRLSCAASGFTFSSYWMSWVRQAPGKGLEWVANINKDGSEKYYVDSVKGRFTISRDNAKNSLYLQMNSLRAEDTAVYFCARDYRYFDWLLSQIDLEIDYFDYWGQGTLVTVSS
VL: not shown
[1]
  median fluorescence intensity, fold over isotype control: 20.6 fold over isotype
[2]
  median fluorescence intensity, fold over isotype control: 124 fold over isotype

B6: antibody 474 (antibody, V domains shown)
VH: EVQLVESGGGLVQPGGSLRLSCAASGFTFSSYWMHWVRQAPGKGLVWVSRINSDGSSTSYADSVKGRFTISRDNAKNTLYRQMNSLRAEDTAVYYCALGPLDIVGSYYYYGMDVWGQGTTVTVSS
VL: NFMLTQPHSVSESPGKTVTISCTGSSGSIASNYVQWYQQRPGSAPTTVIYEDNQRPSGVPDRFSGSIDSSSNSASLTISGLKTEDEADYYCQSYDSSNQDVVFGGGTKLTVL
[4]
  bead binding signal (fold over isotype control): 1.1

B7: antibody 477 (antibody, V domains shown)
VH: QVQLVESGGGVVQPGRSLRLSCAASGITFSSYAMHWVRQAPGKGLEWVAVISYDGSDKYHADSVKGRFAISRDNSKNTLYLQMNSLRAEDTAVYYCAKDKGIAVAGTGWIRPDPEYYFDYWGQGTLVTVSS
VL: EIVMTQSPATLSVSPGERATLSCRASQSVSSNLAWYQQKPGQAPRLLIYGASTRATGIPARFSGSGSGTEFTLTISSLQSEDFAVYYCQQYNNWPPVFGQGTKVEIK
[4]
  bead binding signal (fold over isotype control): 1.3

B8: anti-coronavirus antibody 544 (antibody, V domains shown)
VH: QVQLQQWGAGLLKPSETLSLTCAVYGGSFSGYYWSWIRQPPGKGLEWIGEINHSGSTNYNPSLKSRVTISVDTSKNQFSLKLSSVTAADTAVYYCARGFKWFGELLFGAQGTLVTVSS
VL: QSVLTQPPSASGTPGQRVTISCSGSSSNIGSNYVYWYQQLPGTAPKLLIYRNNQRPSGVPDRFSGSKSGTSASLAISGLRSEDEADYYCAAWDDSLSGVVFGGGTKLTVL
[5]
  binding signal (fold over isotype control): 1.05 fold over isotype control

B9: anti-SARS-CoV-2 antibody 1037 (antibody, V domains shown)
VH: QITLKESGPTLVKPTQTLTLTCTFSGFSLSTSGVGVGWIRQPPGKALEWLALIYWDDDKRYSPSLKSRLTITKDTSKNQVVLTMTNMDPVDTATYYCAHHTITRINDYWGQGTLVTVSS
VL: QSALTQPASVSGSPGQSITISCTATSSDVGAYNYVSWYQQHPGKAPKLMIYDVSKRPSGVSNRFSGSKSGNTASLTISGLQAEDEADYYCSSYTSSSTVFGGGTKLTVLG
[1]
  median fluorescence intensity, fold over isotype control: 83 fold over isotype
[2]
  median fluorescence intensity, fold over isotype control: 23.1 fold over isotype

B10: anti-coronavirus antibody 548 (antibody, V domains shown)
VH: QVQLVESGGGVVQPGRSLRLSCAASGFTFSSYAMHWVRQAPGKGLEWVAVISYDGSNKYYADSVKGRFTISRDNSKNTLYLQMNNLRAEDTAVYYCAKSGSGSYLSAFDIWGQGTMVTVSS
VL: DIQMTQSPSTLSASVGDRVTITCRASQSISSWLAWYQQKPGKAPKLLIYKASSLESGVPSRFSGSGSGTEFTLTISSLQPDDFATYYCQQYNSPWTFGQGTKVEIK
[5]
  binding signal (fold over isotype control): 18.1 fold over isotype control

B11: mAb 1538 (antibody, V domains shown)
VH: EVQLLESGGGLVQPGGSLRLSCAASGFTFSSYAMSWVRQAPGKGLEWVSGISDSGGSTYYADYVKGRFTISRDNSKDTLYLQMNSLRAEDTAVYYCAKDRGNEYALTHYYYYAMDVWGQGTTVTVSS
VL: DIQMTQSPSSLSASVGDRVTITCRASQSISSYLNWYQQKPGKAPKLLIYAAYSLQSGVPSRFSGGGSGTDFTLTISSLQPEDFATYFCQQSYSTPITFGQGTRLEIKR
notes: human IgG1
[3]
  Kd: ≤ 0.0754 nM
  koff: ≤ 1e-05 s⁻¹
  kon: 133000 M⁻¹ s⁻¹

B12: anti-SARS-CoV-2 antibody 923 (antibody, V domains shown)
VH: EVQLVESGGGVVRPGGSLRLSCAASGFIFDDYDMTWVRQAPGKGLEWVSGISWNGGNTGYADSVKGRFTISRDNAKNSLYLQMNSLRAEDTALYHCAVIMSPIPRYSGYDWAGGAFDIWGQGTMVTVSS
VL: SSELTQDPAVSVALGQTVRITCQGDSLRSYYASWYQQKPGQVPILVIYDKNNRPSGIPDRFSGSSSGNTASLTITGAQAEDEADYYCNSRDSSGNAVVFGGGTKLTVLG
[1]
  median fluorescence intensity, fold over isotype control: 59 fold over isotype
[2]
  median fluorescence intensity, fold over isotype control: 118 fold over isotype

B13: anti-coronavirus antibody 556 (antibody, V domains shown)
VH: QVQLVESGGGVVQPGRSLRLSCAASGFTFSSYAMHWVRQAPGKGLEWVAVISYDGSDKYYADSVKGRVTISRDNSKNTLYLQMNSLRVEDTAVFYCAKDDCSGGVCFPDYWGQGTLVTVSS
VL: QSALTQPASVSGSPGQSITISCTGTSSDVGGYNYVSWYQQHPGKAPKLMIYEVSIRPSGVSNRFSGSKSGNTASLTISGLQAEDEAAYYCSSYTSSSTLVFGGGTKLTVL
[5]
  binding signal (fold over isotype control): 1.09 fold over isotype control

B14: antibody 485 (antibody, V domains shown)
VH: QVQLQESGPGLVKPSGTLSLTCAVSGASISSSNWWSWVRQPPGKGLEWIGEIYHSGSTNYNPSLKSRVTISVDKSKNQFSLKLSSVTAADTAVYYCARRSYYGSGSYYPFDYWGQGTLVTVSS
VL: QSALTQPASVSGSPGQSITISCTGTSSDVGSYNLVSWYQQHPGKAPKLMIYEGRKRPSGVSNRFSGSKSGNTASLTISGLQAEDEADYYCCSYAGSSTYVFGTGTKVTVL
[4]
  bead binding signal (fold over isotype control): 1.12

B15: antibody 475 (antibody, V domains shown)
VH: QVQLVESGGGVVQPGRSLRLSCAASGFTFSSYAMHWVRQAPGKGLEWVTFISHEGSNKYYADSVKGRFTISRDNSKNTLYLQMNSLRAEDTAVYYCARTFEYSSSSATGDFDYWGQGTLVTVSS
VL: QSVLTQPPSVSGAPGQRVTISCTGSSSNIGAGYDVHWYQQLPGTAPKLLIYGNSNRPSGVPDRFSGSKSGTSASLAITGLQAEDEADYYCQSYDSSLSGVVFGGGTKLTVL
[4]
  bead binding signal (fold over isotype control): 1.18

B16: anti-coronavirus antibody 566 (antibody, V domains shown)
VH: QVQLVQSGAEVKKPGASVKVSCKASGYTFTSYAMHWVRQAPGQRLEWMGWINAGNGNTKYSQKFQGRVTITRDTSASTAYMELSSLRSEDTAVYYCARDLGVAVTLHPADFDYWGQGTLVTVSS
VL: QSVLTQPPSVSGAPGQRVTISCTGSSSNIGAGYDVHWYQQLPGTAPKLLIYDNSNRPSGVPDRFSGSKSGTSASLAITGLQAEDEADYYCQSYDSSLSAVVFGGGTKLTVL
[5]
  binding signal (fold over isotype control): 0.97 fold over isotype control

B17: anti-coronavirus antibody 560 (antibody, V domains shown)
VH: EVQLVESGGGLVQPGGSLRLSCAASGFTISSNYMSWVRQAPGKGLEWVSVIYSGGSTYYADSVKGRFTISRDNSKNTLYLQMNSLRAEDTAVYYCAREEGEWEKDYYGMDVWGQGTTVTVSS
VL: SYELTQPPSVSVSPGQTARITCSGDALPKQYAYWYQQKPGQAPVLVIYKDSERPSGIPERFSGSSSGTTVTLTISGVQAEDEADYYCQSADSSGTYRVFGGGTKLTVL
[5]
  binding signal (fold over isotype control): 1.14 fold over isotype control

B18: antibody 476 (antibody, V domains shown)
VH: QVQLVQSGSELKKPGASVKVSCKASGYTFTSYAMNWVRQAPGQGLEWMGWINTNTGNPTYAQGFTGRFVFSLDTSVSTAYLQISSLKAEDTGVYYCARDHELPNSSSWFGHFEYWGQGTLVTVSS
VL: SYELTQPPSVSVSPGQTARITCSGDALPKQYAYWYQQKAGQAPVLVIYKDSERRSGIPERFSGSSSGTTVTLTISGVQAEDEADYYCQSADSSGTSVVFGGGTKLTVL
[4]
  bead binding signal (fold over isotype control): 1.04

B19: anti-coronavirus antibody 545 (antibody, V domains shown)
VH: QVQLVQSGSELKKPGASVKVSCKASGYTFTSYAMNWVRQAPGQGLEWMGWINTNTGNPTYAQGFTGRFVFSLDTSVSTAYLQISVLKAEDTGVYYCARDHELPNSSSWFGHFEYWGQGTLVTVSS
VL: SYELTQPPSVSVSPGQTARITCSGDALPKQYAYWYQQKAGQAPVLVIYKDSERRSGIPERFSGSSSGTTVTLTISGVQAEDEADYYCQSADSSGTSVVFGGGTKLTVL
[5]
  binding signal (fold over isotype control): 1.13 fold over isotype control

B20: anti-coronavirus antibody 563 (antibody, V domains shown)
VH: QVQLVESGGGVVQPGRSLRLSCAASGFTFSSYAMHWVRQAPGKGLEWVAVISDDGSNKYYADSVKGRFTISRDNSKNTLYLQMNSLRAEDTAVYYCARDIVATIRRLFDYWGQGTLVTVSS
VL: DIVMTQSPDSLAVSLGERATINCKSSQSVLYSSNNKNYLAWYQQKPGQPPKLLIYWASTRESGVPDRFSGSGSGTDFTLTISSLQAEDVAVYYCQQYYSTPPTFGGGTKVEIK
[5]
  binding signal (fold over isotype control): 35.4 fold over isotype control

B21: anti-coronavirus antibody 546 (antibody, V domains shown)
VH: QVQLVESGGGVVQPGRSLRLSCAASGFTFSSYGMHWVRQAPGKGLEWVAVIWYDGSNKYYADSVKGRFTISRDNSKNTLYLQMNSLRAEDTAVYYCARNCGGDCVAGDGFDYWGQGTLVTVSS
VL: DIQMTQSPSSLSASVGDRVTITCRASQSISSYLNWYQQKPGKAPNLLIYAASSLQSGVPSRFSGSGSGTDFTLTISSLQPEDFATYYCQQSYSALTWTFGQGTKVEIK
[5]
  binding signal (fold over isotype control): 1.18 fold over isotype control
